B1: pVER-IPTG-WT(Q181H): LacI variant: Q181H (protein, UniProt P03023 1-360, looked up, variant Q181H)
Lactose operon repressor: MKPVTLYDVAEYAGVSYQTVSRVVNQASHVSAKTREKVEAAMAELNYIPNRVAQQLAGKQSLLIGVATSSLALHAPSQIVAAIKSRADQLGASVVVSMVERSGVEACKAAVHNLLAQRVSGLIINYPLDDQDAIAVEAACTNVPALFLDVSDQTPINSIIFSHEDGTRLGVEHLVALGHQHIALLAGPLSSVSARLRLAGWHKYLTRNQIQPIAEREGDWSAMSGFQQTMQMLNEGIVPTAMLVANDQMALGAMRAITESGLRVGADISVVGYDDTEDSSCYIPPLTTIKQDFRLLGQTSVDRLLQLSQGQAVKGNQLLPVSLVKRKTTLAPNTQTASPRALADSLMQLARQVSRLESGQ
B2: pVER-IPTG-WT(Q231R): LacI variant: Q231R (protein, UniProt P03023 1-360, looked up, variant Q231R)
Lactose operon repressor: MKPVTLYDVAEYAGVSYQTVSRVVNQASHVSAKTREKVEAAMAELNYIPNRVAQQLAGKQSLLIGVATSSLALHAPSQIVAAIKSRADQLGASVVVSMVERSGVEACKAAVHNLLAQRVSGLIINYPLDDQDAIAVEAACTNVPALFLDVSDQTPINSIIFSHEDGTRLGVEHLVALGHQQIALLAGPLSSVSARLRLAGWHKYLTRNQIQPIAEREGDWSAMSGFQQTMRMLNEGIVPTAMLVANDQMALGAMRAITESGLRVGADISVVGYDDTEDSSCYIPPLTTIKQDFRLLGQTSVDRLLQLSQGQAVKGNQLLPVSLVKRKTTLAPNTQTASPRALADSLMQLARQVSRLESGQ
B3: pVER-IPTG-WT(S190C): LacI variant: S190C (protein, UniProt P03023 1-360, looked up, variant S190C)
Lactose operon repressor: MKPVTLYDVAEYAGVSYQTVSRVVNQASHVSAKTREKVEAAMAELNYIPNRVAQQLAGKQSLLIGVATSSLALHAPSQIVAAIKSRADQLGASVVVSMVERSGVEACKAAVHNLLAQRVSGLIINYPLDDQDAIAVEAACTNVPALFLDVSDQTPINSIIFSHEDGTRLGVEHLVALGHQQIALLAGPLCSVSARLRLAGWHKYLTRNQIQPIAEREGDWSAMSGFQQTMQMLNEGIVPTAMLVANDQMALGAMRAITESGLRVGADISVVGYDDTEDSSCYIPPLTTIKQDFRLLGQTSVDRLLQLSQGQAVKGNQLLPVSLVKRKTTLAPNTQTASPRALADSLMQLARQVSRLESGQ
B4: pVER-IPTG-WT(S279T/V136E): LacI variant: V136E S279T (protein, UniProt P03023 1-360, looked up, variant V136E S279T)
Lactose operon repressor: MKPVTLYDVAEYAGVSYQTVSRVVNQASHVSAKTREKVEAAMAELNYIPNRVAQQLAGKQSLLIGVATSSLALHAPSQIVAAIKSRADQLGASVVVSMVERSGVEACKAAVHNLLAQRVSGLIINYPLDDQDAIAEEAACTNVPALFLDVSDQTPINSIIFSHEDGTRLGVEHLVALGHQQIALLAGPLSSVSARLRLAGWHKYLTRNQIQPIAEREGDWSAMSGFQQTMQMLNEGIVPTAMLVANDQMALGAMRAITESGLRVGADISVVGYDDTEDTSCYIPPLTTIKQDFRLLGQTSVDRLLQLSQGQAVKGNQLLPVSLVKRKTTLAPNTQTASPRALADSLMQLARQVSRLESGQ
B5: pVER-IPTG-WT(V271M): LacI variant: V271M (protein, UniProt P03023 1-360, looked up, variant V271M)
Lactose operon repressor: MKPVTLYDVAEYAGVSYQTVSRVVNQASHVSAKTREKVEAAMAELNYIPNRVAQQLAGKQSLLIGVATSSLALHAPSQIVAAIKSRADQLGASVVVSMVERSGVEACKAAVHNLLAQRVSGLIINYPLDDQDAIAVEAACTNVPALFLDVSDQTPINSIIFSHEDGTRLGVEHLVALGHQQIALLAGPLSSVSARLRLAGWHKYLTRNQIQPIAEREGDWSAMSGFQQTMQMLNEGIVPTAMLVANDQMALGAMRAITESGLRVGADISVMGYDDTEDSSCYIPPLTTIKQDFRLLGQTSVDRLLQLSQGQAVKGNQLLPVSLVKRKTTLAPNTQTASPRALADSLMQLARQVSRLESGQ
B6: pVER-IPTG-WT(V136E): LacI variant: V136E (protein, UniProt P03023 1-360, looked up, variant V136E)
Lactose operon repressor: MKPVTLYDVAEYAGVSYQTVSRVVNQASHVSAKTREKVEAAMAELNYIPNRVAQQLAGKQSLLIGVATSSLALHAPSQIVAAIKSRADQLGASVVVSMVERSGVEACKAAVHNLLAQRVSGLIINYPLDDQDAIAEEAACTNVPALFLDVSDQTPINSIIFSHEDGTRLGVEHLVALGHQQIALLAGPLSSVSARLRLAGWHKYLTRNQIQPIAEREGDWSAMSGFQQTMQMLNEGIVPTAMLVANDQMALGAMRAITESGLRVGADISVVGYDDTEDSSCYIPPLTTIKQDFRLLGQTSVDRLLQLSQGQAVKGNQLLPVSLVKRKTTLAPNTQTASPRALADSLMQLARQVSRLESGQ
B7: pVER-IPTG-WT: wild-type LacI (lac repressor) on the pVER plasmid (protein, UniProt P03023 1-360, looked up)
Lactose operon repressor: MKPVTLYDVAEYAGVSYQTVSRVVNQASHVSAKTREKVEAAMAELNYIPNRVAQQLAGKQSLLIGVATSSLALHAPSQIVAAIKSRADQLGASVVVSMVERSGVEACKAAVHNLLAQRVSGLIINYPLDDQDAIAVEAACTNVPALFLDVSDQTPINSIIFSHEDGTRLGVEHLVALGHQQIALLAGPLSSVSARLRLAGWHKYLTRNQIQPIAEREGDWSAMSGFQQTMQMLNEGIVPTAMLVANDQMALGAMRAITESGLRVGADISVVGYDDTEDSSCYIPPLTTIKQDFRLLGQTSVDRLLQLSQGQAVKGNQLLPVSLVKRKTTLAPNTQTASPRALADSLMQLARQVSRLESGQ
B8: pVER-IPTG-WT(V136E/G200C): LacI variant: V136E G200C (protein, UniProt P03023 1-360, looked up, variant V136E G200C)
Lactose operon repressor: MKPVTLYDVAEYAGVSYQTVSRVVNQASHVSAKTREKVEAAMAELNYIPNRVAQQLAGKQSLLIGVATSSLALHAPSQIVAAIKSRADQLGASVVVSMVERSGVEACKAAVHNLLAQRVSGLIINYPLDDQDAIAEEAACTNVPALFLDVSDQTPINSIIFSHEDGTRLGVEHLVALGHQQIALLAGPLSSVSARLRLACWHKYLTRNQIQPIAEREGDWSAMSGFQQTMQMLNEGIVPTAMLVANDQMALGAMRAITESGLRVGADISVVGYDDTEDSSCYIPPLTTIKQDFRLLGQTSVDRLLQLSQGQAVKGNQLLPVSLVKRKTTLAPNTQTASPRALADSLMQLARQVSRLESGQ
B9: pVER-IPTG-WT(N208Y): LacI variant: N208Y (protein, UniProt P03023 1-360, looked up, variant N208Y)
Lactose operon repressor: MKPVTLYDVAEYAGVSYQTVSRVVNQASHVSAKTREKVEAAMAELNYIPNRVAQQLAGKQSLLIGVATSSLALHAPSQIVAAIKSRADQLGASVVVSMVERSGVEACKAAVHNLLAQRVSGLIINYPLDDQDAIAVEAACTNVPALFLDVSDQTPINSIIFSHEDGTRLGVEHLVALGHQQIALLAGPLSSVSARLRLAGWHKYLTRYQIQPIAEREGDWSAMSGFQQTMQMLNEGIVPTAMLVANDQMALGAMRAITESGLRVGADISVVGYDDTEDSSCYIPPLTTIKQDFRLLGQTSVDRLLQLSQGQAVKGNQLLPVSLVKRKTTLAPNTQTASPRALADSLMQLARQVSRLESGQ

System: eYFP under the control of the lactose operator (lacO)
Assay: in vivo dose-response curves of LacI variants to IPTG measured with flow cytometry (eYFP output), fit to the Hill equation
Type: cell-based, E. coli
Details: for dose-response phenotype (in words): IPTG dose-response by flow cytometry; for n: the Hill coefficient: IPTG dose-response; for log_g0: the base-10 logarithm of G0 (in MEF) / log_ginf: the base-10 logarithm of G∞ (in MEF): value is log10; for log_ginf: the base-10 logarithm of G∞ (in MEF): saturating output
Method: Dose-response curves were measured with flow cytometry using E. coli MG1655Δlac transformed with variants of the pVER plasmid, described previously. The plasmid contained different variants of the lacI coding DNA sequence (CDS), as described in the text, and an expression cassette with enhanced yellow fluorescent protein (eYFP) under the control of the lactose operator (lacO). The lacI CDS was verified with Sanger sequencing for each variant.
All cultures were grown in a rich M9 media (3 g/L KH2PO4, 6.78 g/L Na2HPO4, 0.5 g/L NaCl, 1 g/L NH4Cl, 0.1 mmol/L CaCl2, 2 mmol/L MgSO4, 4% glycerol, and 20 g/L casamino acids) supplemented with 50 μg/mL kanamycin.
For flow cytometry measurements, E. coli cultures were grown in a laboratory automation system that included an automated liquid handler (Hamilton, STAR), an automated plate sealer (4titude, a4S), an automated de-sealer (Brooks, XPeel), and two multi-mode plate readers (BioTek, Neo2SM).
Cultures were grown in clear polystyrene 96-well plates with 1.1 mL square wells (4titude, 4ti-0255). The culture volume per well was 0.5 mL. Before incubation, each 96-well growth plate was sealed by the automated plate sealer with a gas permeable membrane (4titude, 4ti-0598). Growth plates were incubated in one of the multi-mode plate readers at 37°C with a 1°C gradient applied from the bottom to the top of the incubation chamber to minimize condensation on the inside of the membrane. The plate readers were set for double-orbital shaking at 807 cycles per minute. Optical density at 600 nm (OD600) was measured every 5 minutes during incubation, with continuous shaking applied between measurements (optical density at 700 nm and YFP fluorescence were also measured every 5 minutes). After incubation, the automated de-sealer was used to remove the gas-permeable membrane from each 96-well plate to enable automated passaging of cultures and sample preparation for flow cytometry measurements.
For each measurement, starter cultures were prepared from glycerol freezer stock in 5 mL of rich M9 media in a 14 mL snap-cap culture tubes. Starter cultures were incubated at 37°C with orbital shaking at 300 rpm for between 4 h and 24 h prior to loading the automation system. The automation system then prepared 96-well growth plates, sealed and de-sealed the growth plates, incubated the growth plates, and prepared flow cytometry sample plates. The automated culture protocol consisted of the following steps: […]

[1] = basal output, Hill fit of cytometry data, posterior mean
[2] = Hill fit of cytometry data, posterior mean

Row | Molecule | dose-response phenotype (in words) | other results
1 | B1 | silent in wild-type background | 
2 | B2 | silent in wild-type background | 
3 | B3 | silent in wild-type background | 
4 | B4 | more complicated non-monotonic dose-response (high-low-high-low) | 
5 | B5 | silent in wild-type background | 
6 | B6 | reduced G∞ but G0 and EC50 similar to the wild type | 
7 | B7 |  | n: the Hill coefficient (Hill fit of cytometry data): 1.559; G0 (basal output): 158 MEF; log_g0: the base-10 logarithm of G0 (in MEF) [1]: 2.097 MEF; log_ginf: the base-10 logarithm of G∞ (in MEF) [2]: 4.44 MEF
8 | B8 | band-stop dose-response curve | EC50 (IPTG as ligand, Hill fit of cytometry data, posterior mean, read-out: log_ec50: the base-10 logarithm of EC50 (converted)): 2.48 µM; n: the Hill coefficient (Hill fit of cytometry data): 2.118; log_g0: the base-10 logarithm of G0 (in MEF) [1]: 3.294 MEF; log_ginf: the base-10 logarithm of G∞ (in MEF) [2]: 4.168 MEF
9 | B9 | silent in wild-type background | 

Source: paper PMC10057847, “Precision engineering of biological function with large-scale measurements and machine learning” (PLOS ONE, 2023)
